Source: the Human Domainome abundance scans (Beltran et al. 2025)
± gives the uncertainty stated by the source.

B1: Peroxisome proliferator-activated receptor delta, residues 71 to 145; numbered along this chain, Q03181 (parent)
chain: NMECRVCGDKASGFHYGVHACEGCKGFFRRTIRMKLEYEKCERSCKIQKKNRNKCQYCRFQKCLALGMSHNAIRF

Variants of: B1
Experiment: abundance fitness (aPCA) (normalised: wild type 0, dead -1); higher = more abundant; growth selection in yeast, the domain comes from the species named
Details: Homo sapiens
With NMECRVCGDKASGYHYGVHACEGCKGFFRRTIRMKLEYEKCERSCKIQKKNRNKCQYCRFQKCLALGMSHNAIRF the abundance fitness was 0.038 ± 0.063.
NMECRVCGDKASGDHYGVHACEGCKGFFRRTIRMKLEYEKCERSCKIQKKNRNKCQYCRFQKCLALGMSHNAIRF gave an abundance fitness of 0.014 ± 0.052.
In the case of NMECRVCGDKASGGHYGVHACEGCKGFFRRTIRMKLEYEKCERSCKIQKKNRNKCQYCRFQKCLALGMSHNAIRF, the abundance fitness is reported as -0.299 ± 0.039.
Work on NMECRVCGDKASGKHYGVHACEGCKGFFRRTIRMKLEYEKCERSCKIQKKNRNKCQYCRFQKCLALGMSHNAIRF yielded an abundance fitness of 0.006 ± 0.054.
In the case of NMECRVCGDKASGMHYGVHACEGCKGFFRRTIRMKLEYEKCERSCKIQKKNRNKCQYCRFQKCLALGMSHNAIRF, the abundance fitness is reported as -0.059 ± 0.053.
For NMECRVCGDKASGNHYGVHACEGCKGFFRRTIRMKLEYEKCERSCKIQKKNRNKCQYCRFQKCLALGMSHNAIRF, the abundance fitness was -0.066 ± 0.067.
For NMECRVCGDKASGLHYGVHACEGCKGFFRRTIRMKLEYEKCERSCKIQKKNRNKCQYCRFQKCLALGMSHNAIRF, the abundance fitness was 0.085 ± 0.034.
Variant NMECRVCGDKASGPHYGVHACEGCKGFFRRTIRMKLEYEKCERSCKIQKKNRNKCQYCRFQKCLALGMSHNAIRF has an abundance fitness of -0.14 ± 0.051.
In the case of NMECRVCGDKASGRHYGVHACEGCKGFFRRTIRMKLEYEKCERSCKIQKKNRNKCQYCRFQKCLALGMSHNAIRF, the abundance fitness is reported as -0.138 ± 0.035.
Work on NMECRVCGDKASGQHYGVHACEGCKGFFRRTIRMKLEYEKCERSCKIQKKNRNKCQYCRFQKCLALGMSHNAIRF yielded an abundance fitness of -0.064 ± 0.056.
Variant NMECRVCGDKASGTHYGVHACEGCKGFFRRTIRMKLEYEKCERSCKIQKKNRNKCQYCRFQKCLALGMSHNAIRF has an abundance fitness of 0.066 ± 0.042.
NMECRVCGDKASGCHYGVHACEGCKGFFRRTIRMKLEYEKCERSCKIQKKNRNKCQYCRFQKCLALGMSHNAIRF gave an abundance fitness of -0.076 ± 0.059.
In the case of NMECRVCGDKASGEHYGVHACEGCKGFFRRTIRMKLEYEKCERSCKIQKKNRNKCQYCRFQKCLALGMSHNAIRF, the abundance fitness is reported as 0.066 ± 0.042.
In the case of NMECRVCGDKASGWHYGVHACEGCKGFFRRTIRMKLEYEKCERSCKIQKKNRNKCQYCRFQKCLALGMSHNAIRF, the abundance fitness is reported as -0.118 ± 0.052.
NMECRVCGDKASGHHYGVHACEGCKGFFRRTIRMKLEYEKCERSCKIQKKNRNKCQYCRFQKCLALGMSHNAIRF showed an abundance fitness of -0.098 ± 0.077.
Work on NMECRVCGDKASGIHYGVHACEGCKGFFRRTIRMKLEYEKCERSCKIQKKNRNKCQYCRFQKCLALGMSHNAIRF yielded an abundance fitness of 0.002 ± 0.064.
NMECRVCGDKASGVHYGVHACEGCKGFFRRTIRMKLEYEKCERSCKIQKKNRNKCQYCRFQKCLALGMSHNAIRF gave an abundance fitness of 0.018 ± 0.037.
In the case of NMECRVCGDKASGAHYGVHACEGCKGFFRRTIRMKLEYEKCERSCKIQKKNRNKCQYCRFQKCLALGMSHNAIRF, the abundance fitness is reported as -0.028 ± 0.039.
NMECRVCGDKASQFHYGVHACEGCKGFFRRTIRMKLEYEKCERSCKIQKKNRNKCQYCRFQKCLALGMSHNAIRF showed an abundance fitness of -0.322 ± 0.077.
In the case of NMECRVCGDKASYFHYGVHACEGCKGFFRRTIRMKLEYEKCERSCKIQKKNRNKCQYCRFQKCLALGMSHNAIRF, the abundance fitness is reported as -0.385 ± 0.096.
In the case of NMECRVCGDKASIFHYGVHACEGCKGFFRRTIRMKLEYEKCERSCKIQKKNRNKCQYCRFQKCLALGMSHNAIRF, the abundance fitness is reported as -0.324 ± 0.13.
Work on NMECRVCGDKASWFHYGVHACEGCKGFFRRTIRMKLEYEKCERSCKIQKKNRNKCQYCRFQKCLALGMSHNAIRF yielded an abundance fitness of -0.708 ± 0.097.
For NMECRVCGDKASFFHYGVHACEGCKGFFRRTIRMKLEYEKCERSCKIQKKNRNKCQYCRFQKCLALGMSHNAIRF, the abundance fitness was -0.838 ± 0.17.
With NMECRVCGDKASMFHYGVHACEGCKGFFRRTIRMKLEYEKCERSCKIQKKNRNKCQYCRFQKCLALGMSHNAIRF the abundance fitness was -0.431 ± 0.079.
Work on NMECRVCGDKASVFHYGVHACEGCKGFFRRTIRMKLEYEKCERSCKIQKKNRNKCQYCRFQKCLALGMSHNAIRF yielded an abundance fitness of -0.353 ± 0.049.
NMECRVCGDKASPFHYGVHACEGCKGFFRRTIRMKLEYEKCERSCKIQKKNRNKCQYCRFQKCLALGMSHNAIRF showed an abundance fitness of -0.363 ± 0.079.
In the case of NMECRVCGDKASHFHYGVHACEGCKGFFRRTIRMKLEYEKCERSCKIQKKNRNKCQYCRFQKCLALGMSHNAIRF, the abundance fitness is reported as -0.545 ± 0.12.
With NMECRVCGDKASRFHYGVHACEGCKGFFRRTIRMKLEYEKCERSCKIQKKNRNKCQYCRFQKCLALGMSHNAIRF the abundance fitness was -0.427 ± 0.045.
Variant NMECRVCGDKASLFHYGVHACEGCKGFFRRTIRMKLEYEKCERSCKIQKKNRNKCQYCRFQKCLALGMSHNAIRF has an abundance fitness of -0.48 ± 0.055.
NMECRVCGDKASNFHYGVHACEGCKGFFRRTIRMKLEYEKCERSCKIQKKNRNKCQYCRFQKCLALGMSHNAIRF gave an abundance fitness of -0.01 ± 0.069.
NMECRVCGDKASSFHYGVHACEGCKGFFRRTIRMKLEYEKCERSCKIQKKNRNKCQYCRFQKCLALGMSHNAIRF showed an abundance fitness of -0.212 ± 0.048.
With NMECRVCGDKASGFHSGVHACEGCKGFFRRTIRMKLEYEKCERSCKIQKKNRNKCQYCRFQKCLALGMSHNAIRF the abundance fitness was -0.132 ± 0.041.
With NMECRVCGDKASGFHMGVHACEGCKGFFRRTIRMKLEYEKCERSCKIQKKNRNKCQYCRFQKCLALGMSHNAIRF the abundance fitness was -0.171 ± 0.057.
With NMECRVCGDKASGFHGGVHACEGCKGFFRRTIRMKLEYEKCERSCKIQKKNRNKCQYCRFQKCLALGMSHNAIRF the abundance fitness was -0.013 ± 0.044.
NMECRVCGDKASGFHRGVHACEGCKGFFRRTIRMKLEYEKCERSCKIQKKNRNKCQYCRFQKCLALGMSHNAIRF showed an abundance fitness of -0.533 ± 0.057.
Work on NMECRVCGDKASGFHDGVHACEGCKGFFRRTIRMKLEYEKCERSCKIQKKNRNKCQYCRFQKCLALGMSHNAIRF yielded an abundance fitness of 0.126 ± 0.056.
